The data set concerns the molecule itself. The data set is described as follows: SDS-PAGE of the non-heated sample (SDS-resistant oligomer); purified gp12 final preparation, not heated before SDS-PAGE, ambient temperature; trimer band at 172.5 kDa.

These results are taken from article PMC4943950, “T4 Phage Tail Adhesin Gp12 Counteracts LPS-Induced Inflammation In Vivo” (Frontiers in Microbiology, 2016).

B1: T4 phage short tail fiber protein (tail adhesin) gp12, recombinant, His-tagged (natural protein, bacteriophage T4, UniProt P10930 1-527, looked up)
chain: MSNNTYQHVSNESRYVKFDPTDTNFPPEITDVQAAIAAISPAGVNGVPDASSTTKGILFIPTEQEVIDGTNNTKAVTPATLATRLSYPNATETVYGLTRYSTNDEAIAGVNNESSITPAKFTVALNNAFETRVSTESSNGVIKISSLPQALAGADDTTAMTPLKTQQLAIKLIAQIAPSETTATESDQGVVQLATVAQVRQGTLREGYAISPYTFMNSSSTEEYKGVIKLGTQSEVNSNNASVAVTGATLNGRGSTTSMRGVVKLTTTAGSQSGGDASSALAWNADVIQQRGGQIIYGTLRIEDTFTIANGGANITGTVRMTGGYIQGNRIVTQNEIDRTIPVGAIMMWAADSLPSDAWRFCHGGTVSASDCPLYASRIGTRYGGNPSNPGLPDMRGLFVRGSGRGSHLTNPNVNGNDQFGKPRLGVGCTGGYVGEVQIQQMSYHKHAGGFGEHDDLGAFGNTRRSNFVGTRKGLDWDNRSYFTNDGYEIDPESQRNSKYTLNRPELIGNETRPWNISLNYIIKVKE
notes: No step that removes the His-Tag is described; also called phage adhesin
In the case of B1, the “stoichiometry N” value is 3.
